Data as given in patent US20120329707A1 (INDIANA UNIVERSITY RESEARCH AND TECHNOLOGY, published 2012).
Numbered stars: 1 amine (or outer) side, 2 acyl side, 3 side chain; on linkers, the order of the positions; unused ones are H or OH. Square brackets hold non-standard residues; d marks the D form. Primed or numbered codes have the meaning given here. Side chains are listed from the residue outwards. Ends that are not written are not given here. * marks the point of attachment. 40K‑TE PEG″ = 40 kDa PEG bound to Cys via thioether made from an iodoacetyl-functionalised PEG; γGlu = O=C(O)[C@H](CCC(=O)[*:2])N[*:1]; Desaminohistidyl = O=C(CCc1c[nH]cn1)*; Palmitoyl = CCCCCCCCCCCCCCCC(=O)*; Aib = CC(C)(N)C(=O)O

T1: GIP receptor
T1 sequence (P48546 whole entry, species assumed, looked up): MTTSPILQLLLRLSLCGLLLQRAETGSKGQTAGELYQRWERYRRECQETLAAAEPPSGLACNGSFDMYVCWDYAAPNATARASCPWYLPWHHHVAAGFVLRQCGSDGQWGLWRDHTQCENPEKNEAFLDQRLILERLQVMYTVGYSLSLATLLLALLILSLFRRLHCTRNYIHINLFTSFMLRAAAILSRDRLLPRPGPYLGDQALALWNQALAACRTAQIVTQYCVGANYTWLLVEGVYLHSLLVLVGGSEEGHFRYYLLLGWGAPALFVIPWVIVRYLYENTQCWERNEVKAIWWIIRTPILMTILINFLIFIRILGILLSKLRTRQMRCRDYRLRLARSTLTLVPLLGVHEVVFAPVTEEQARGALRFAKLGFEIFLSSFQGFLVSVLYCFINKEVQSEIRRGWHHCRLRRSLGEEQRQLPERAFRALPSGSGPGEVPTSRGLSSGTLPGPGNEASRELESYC


How the values were obtained:
Test in all cases: cell-based or functional assay
glucagon receptor = molecular target: glucagon receptor
GLP-1 receptor = molecular target: GLP-1 receptor
GIP receptor = molecular target: T1, GIP receptor

Binder | EC50 (nM) at glucagon receptor (glucagon receptor) [nM] | EC50 (nM) at GLP-1 receptor (GLP-1 receptor) [nM] | EC50 (nM) at GIP receptor (GIP receptor) [nM]
H[dS]QGTFTSDK([γGlu-Palmitoyl])SKYLDERAAQDFVQWLLDGRG-NH2 [peptide of SEQ ID NO: 19] | 0.004 | 0.002 | 0.812
H[dS]QGTFTSDK([γGlu-Palmitoyl])SKYLDERAAQDFVQWLLDGRK-NH2 [peptide of SEQ ID NO: 28] | 0.015 | 0.003 | 2.84
H[Aib]QGTFTSDK([γGlu-γGlu-Palmitoyl])SKYLD[Aib]RAAQDFVQWLMDGRG-NH2 (N-terminus assumed; SMILES CCCCCCCCCCCCCCCC(=O)N[C@@H](CCC(=O)N[C@@H](CCC(=O)NCCCC[C@H](NC(=O)[C@H](CC(=O)O)NC(=O)[C@H](CO)NC(=O)[C@@H](NC(=O)[C@H](Cc1ccccc1)NC(=O)[C@@H](NC(=O)CNC(=O)[C@H](CCC(N)=O)NC(=O)C(C)(C)NC(=O)[C@@H](N)Cc1c[nH]cn1)[C@@H](C)O)[C@@H](C)O)C(=O)N[C@@H](CO)C(=O)N[C@@H](CCCCN)C(=O)N[C@@H](Cc1ccc(O)cc1)C(=O)N[C@@H](CC(C)C)C(=O)N[C@@H](CC(=O)O)C(=O)NC(C)(C)C(=O)N[C@@H](CCCNC(=N)N)C(=O)N[C@@H](C)C(=O)N[C@@H](C)C(=O)N[C@@H](CCC(N)=O)C(=O)N[C@@H](CC(=O)O)C(=O)N[C@@H](Cc1ccccc1)C(=O)N[C@H](C(=O)N[C@@H](CCC(N)=O)C(=O)N[C@@H](Cc1c[nH]c2ccccc12)C(=O)N[C@@H](CC(C)C)C(=O)N[C@@H](CCSC)C(=O)N[C@@H](CC(=O)O)C(=O)NCC(=O)N[C@@H](CCCNC(=N)N)C(=O)NCC(N)=O)C(C)C)C(=O)O)C(=O)O) [peptide of SEQ ID NO: 22] | 0.005 | 0.002 | 2.37
H[Aib]QGTFTSDYSKYLDERRA[Aib]EFVC(40K‑TE PEG″)WLLDT-NH2 [peptide of SEQ ID NO: 14] | 0.365 | 0.076 | 33.7
H[dS]QGTFTSDK([γGlu-Palmitoyl])SKYLDERAAQDFVQWLLKGRG-NH2 [peptide of SEQ ID NO: 27] | 0.022 | 0.005 | 2.12
HXQGTFTSDKSKYLDERAAQDFVQWLMDT (aib at 2; Lys 10 with γEγEC16; C-terminal amide) [peptide of SEQ ID NO: 61] | 0.009 | 0.004 | 0.676
H[Aib]QGTFTSDK([γGlu-γGlu-Palmitoyl])SKYLD[Aib]RAAQDFVQWLMKGRG-NH2 (N-terminus assumed; SMILES CCCCCCCCCCCCCCCC(=O)N[C@@H](CCC(=O)N[C@@H](CCC(=O)NCCCC[C@H](NC(=O)[C@H](CC(=O)O)NC(=O)[C@H](CO)NC(=O)[C@@H](NC(=O)[C@H](Cc1ccccc1)NC(=O)[C@@H](NC(=O)CNC(=O)[C@H](CCC(N)=O)NC(=O)C(C)(C)NC(=O)[C@@H](N)Cc1c[nH]cn1)[C@@H](C)O)[C@@H](C)O)C(=O)N[C@@H](CO)C(=O)N[C@@H](CCCCN)C(=O)N[C@@H](Cc1ccc(O)cc1)C(=O)N[C@@H](CC(C)C)C(=O)N[C@@H](CC(=O)O)C(=O)NC(C)(C)C(=O)N[C@@H](CCCNC(=N)N)C(=O)N[C@@H](C)C(=O)N[C@@H](C)C(=O)N[C@@H](CCC(N)=O)C(=O)N[C@@H](CC(=O)O)C(=O)N[C@@H](Cc1ccccc1)C(=O)N[C@H](C(=O)N[C@@H](CCC(N)=O)C(=O)N[C@@H](Cc1c[nH]c2ccccc12)C(=O)N[C@@H](CC(C)C)C(=O)N[C@@H](CCSC)C(=O)N[C@@H](CCCCN)C(=O)NCC(=O)N[C@@H](CCCNC(=N)N)C(=O)NCC(N)=O)C(C)C)C(=O)O)C(=O)O) [peptide of SEQ ID NO: 23] | 0.023 | 0.004 | 1.58
H[Aib]QGTFTSDK([γGlu-γGlu-Palmitoyl])SKYLD[Aib]RAAQDFVQWLKDGRG-NH2 (N-terminus assumed; SMILES CCCCCCCCCCCCCCCC(=O)N[C@@H](CCC(=O)N[C@@H](CCC(=O)NCCCC[C@H](NC(=O)[C@H](CC(=O)O)NC(=O)[C@H](CO)NC(=O)[C@@H](NC(=O)[C@H](Cc1ccccc1)NC(=O)[C@@H](NC(=O)CNC(=O)[C@H](CCC(N)=O)NC(=O)C(C)(C)NC(=O)[C@@H](N)Cc1c[nH]cn1)[C@@H](C)O)[C@@H](C)O)C(=O)N[C@@H](CO)C(=O)N[C@@H](CCCCN)C(=O)N[C@@H](Cc1ccc(O)cc1)C(=O)N[C@@H](CC(C)C)C(=O)N[C@@H](CC(=O)O)C(=O)NC(C)(C)C(=O)N[C@@H](CCCNC(=N)N)C(=O)N[C@@H](C)C(=O)N[C@@H](C)C(=O)N[C@@H](CCC(N)=O)C(=O)N[C@@H](CC(=O)O)C(=O)N[C@@H](Cc1ccccc1)C(=O)N[C@H](C(=O)N[C@@H](CCC(N)=O)C(=O)N[C@@H](Cc1c[nH]c2ccccc12)C(=O)N[C@@H](CC(C)C)C(=O)N[C@@H](CCCCN)C(=O)N[C@@H](CC(=O)O)C(=O)NCC(=O)N[C@@H](CCCNC(=N)N)C(=O)NCC(N)=O)C(C)C)C(=O)O)C(=O)O) [peptide of SEQ ID NO: 24] | 0.021 | 0.004 | 1.46
[Desaminohistidyl][dS]QGTFTSDK([γGlu-Palmitoyl])SKYLDERAAQDFVQWLLDT-NH2 [peptide of SEQ ID NO: 20] | 0.006 | 0.004 | 1.38
Ac-H[dS]QGTFTSDK([γGlu-Palmitoyl])SKYLDERAAQDFVQWLLDT-NH2 [peptide of SEQ ID NO: 21] | 0.005 | 0.009 | 4.5
H[Aib]QGTFTSDK([γGlu-γGlu-Palmitoyl])SKYLD[Aib]RAAQDFVQWLK[Aib]GRG-NH2 (N-terminus assumed; SMILES CCCCCCCCCCCCCCCC(=O)N[C@@H](CCC(=O)N[C@@H](CCC(=O)NCCCC[C@H](NC(=O)[C@H](CC(=O)O)NC(=O)[C@H](CO)NC(=O)[C@@H](NC(=O)[C@H](Cc1ccccc1)NC(=O)[C@@H](NC(=O)CNC(=O)[C@H](CCC(N)=O)NC(=O)C(C)(C)NC(=O)[C@@H](N)Cc1c[nH]cn1)[C@@H](C)O)[C@@H](C)O)C(=O)N[C@@H](CO)C(=O)N[C@@H](CCCCN)C(=O)N[C@@H](Cc1ccc(O)cc1)C(=O)N[C@@H](CC(C)C)C(=O)N[C@@H](CC(=O)O)C(=O)NC(C)(C)C(=O)N[C@@H](CCCNC(=N)N)C(=O)N[C@@H](C)C(=O)N[C@@H](C)C(=O)N[C@@H](CCC(N)=O)C(=O)N[C@@H](CC(=O)O)C(=O)N[C@@H](Cc1ccccc1)C(=O)N[C@H](C(=O)N[C@@H](CCC(N)=O)C(=O)N[C@@H](Cc1c[nH]c2ccccc12)C(=O)N[C@@H](CC(C)C)C(=O)N[C@@H](CCCCN)C(=O)NC(C)(C)C(=O)NCC(=O)N[C@@H](CCCNC(=N)N)C(=O)NCC(N)=O)C(C)C)C(=O)O)C(=O)O) [peptide of SEQ ID NO: 26] | 0.106 | 0.004 | 3.29
H[Aib]QGTFTSDK([γGlu-γGlu-Palmitoyl])SKYLD[Aib]RAAQDFVQWLKDGRP-NH2 (N-terminus assumed; SMILES CCCCCCCCCCCCCCCC(=O)N[C@@H](CCC(=O)N[C@@H](CCC(=O)NCCCC[C@H](NC(=O)[C@H](CC(=O)O)NC(=O)[C@H](CO)NC(=O)[C@@H](NC(=O)[C@H](Cc1ccccc1)NC(=O)[C@@H](NC(=O)CNC(=O)[C@H](CCC(N)=O)NC(=O)C(C)(C)NC(=O)[C@@H](N)Cc1c[nH]cn1)[C@@H](C)O)[C@@H](C)O)C(=O)N[C@@H](CO)C(=O)N[C@@H](CCCCN)C(=O)N[C@@H](Cc1ccc(O)cc1)C(=O)N[C@@H](CC(C)C)C(=O)N[C@@H](CC(=O)O)C(=O)NC(C)(C)C(=O)N[C@@H](CCCNC(=N)N)C(=O)N[C@@H](C)C(=O)N[C@@H](C)C(=O)N[C@@H](CCC(N)=O)C(=O)N[C@@H](CC(=O)O)C(=O)N[C@@H](Cc1ccccc1)C(=O)N[C@H](C(=O)N[C@@H](CCC(N)=O)C(=O)N[C@@H](Cc1c[nH]c2ccccc12)C(=O)N[C@@H](CC(C)C)C(=O)N[C@@H](CCCCN)C(=O)N[C@@H](CC(=O)O)C(=O)NCC(=O)N[C@@H](CCCNC(=N)N)C(=O)N1CCC[C@H]1C(N)=O)C(C)C)C(=O)O)C(=O)O) [peptide of SEQ ID NO: 25] | 0.035 | 0.003 | 2.36
H[Aib]QGTFTSDK([γGlu-Palmitoyl])SKYLD[Aib]RAAQDFVQWLMKTK[dE]-OH [peptide of SEQ ID NO: 60] | 4.6 | 0.033 | 147
